Measured values published in PMC7580981.

Biological target: IBV polymerase trimeric complex (Pol3): PA-His, PB1, PB2 (influenza B virus)
Experiment: SPR
Conditions: natural protein

chicken ANP32A, purified (GST cleaved) was tested, and the Kd was 133 nM.
